Literature values as cited in publication PMC12043044.

Target: Ubiquitin (UniProt P0CG48)

Chain of Sla1 SH3-3 (P32790 350-418): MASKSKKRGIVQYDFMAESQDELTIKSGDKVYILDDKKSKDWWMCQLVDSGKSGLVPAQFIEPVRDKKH

In the case of Sla1 SH3-3 (from UniProt P32790), the Kd is listed as 40 µM.
